Data: the supplement of paper PMC10567573

B1: PPEF2 (parent)
chain: FIPSSHNDRDFLTRIFTEDRFAQD
B2: RHOBTB2 (parent)
chain: HHHHGRDFLLRAASFDVCESVDEA

Variants of: B1
Assay: protein stability index of a GFP-peptide fusion (GPS, HEK-293T) (PSI 1-6); higher = more stable
Details: c terminus: a fixed tail appended
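Further: lentivirally expressed fusions sorted by FACS into six bins by GFP to DsRed ratio, PSI derived from sequencing read proportions per bin multiplied by bin number.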

Protein stability index: each site, then its substitutions
H6: E 1.99, L 2.23, N 1.47, M 1.09, Y 2.21, W 1.71, R 1.68, G 2.07
I2: P 1.78, E 3.85, C 1.46, R 3.12, V 2.73, T 3.63, Q 1.5, M 2.07, W 2.23
N7: M 2.22, T 2.17, A 1.65, S 1.73, W 1.6, L 1.97
S4: A 2.19, G 2.53, D 2.11, W 2.19, M 1.31, N 3.06, T 2.57
Q23: W 2.55, Y 2.84, R 3.08, L 2.06
D8: C 2.03
R14: F 2.7, L 2, W 2.5, G 1.95
F1: C 4.21, M 4.06, Q 4.19, P 4.18, T 4.21
S5: Q 2.55, V 2.09, A 2.53, E 2.4, P 2.29
A22: P 1.95, C 1.95, D 2.56
I15: Q 2.19, G 1.98, D 2.01, A 1.61, N 1.83, R 2.9, T 2.45, F 2.2, P 1.91
R20: M 1.39, E 1.81, N 2.07, C 2.1
D24: L 2.2, S 2.93, P 1.73, A 2.61, I 2.99, E 1.95, T 1.52, N 1.62, M 1.94, W 2.63
T13: C 2.75, A 2.57, K 1.38, I 2.21, F 1.5
D10: I 3.22, H 2.8, W 2.6, N 2.96, C 2.41, R 2.67
T17: D 1.95, G 2.7, Y 2.08, W 2.79, C 3.8, R 1.73, K 3.08, A 1.71
R9: T 1.74, F 2.21, Y 1.89, M 2.3, P 1.69, G 2.01, W 2.3, K 2.48
D19: M 3.16, S 2.51, Q 1.68, I 2.76, R 1.8, Y 1.79, L 1.96, F 1.77
E18: T 2.27, A 2.64, F 2.52, I 3.03, H 3.19, P 2.98, V 2.51, R 2.16, K 2.47
P3: H 2.35, T 1.99, K 1.25, Y 1.84, R 1.72, S 1.91, Q 1.92
F11: L 1.56, R 1.99, S 1.58, C 2.8, G 2.21, Y 2.1, A 1.98, Q 2, T 1.7
F16: G 1.92, E 2.02, K 1.47, C 2.48, A 1.76, Q 2.06, Y 1.21, T 2.59, M 1.84
F21: V 1.64, E 1.81, C 1.81, G 1.92
L12: K 2.38, T 2.17, D 2.26, S 1.54, G 1.52, Q 1.82, N 1.45, C 2.29

Variants of: B2
Assay: as above
Details: c terminus: a fixed tail appended

Protein stability index, by site and new letter:
A24: T 3.95, S 3.82, P 3.56, L 3.75, Q 3.86, V 3.27, M 3.61, R 3.75, Y 3.29, N 3.59, W 2.53
